Laboratory results as given in article PMC6555819, “Comprehensive study of nuclear receptor DNA binding provides a revised framework for understanding receptor specificity”.
Where a chain is given by its changes, count along the chain named.

B1: NRC3_wobSeed64_DR2_T16A_o1 (dsDNA)
DNA 1: GCTAGCCTAGGTCATAGGGCCAGTATAGTACGCATCGCGATTGACAGCGTAGAATGAAGG
DNA 2: CCTTCATTCTACGCTGTCAATCGCGATGCGTACTATACTGGCCCTATGACCTAGGCTAGC
B2: NRC3_wobSeed6_DR0_A6G_o1 (dsDNA)
DNA 1: GCCCTGGCAGGCCAGGGTCACTCAAGCATTTCGCTTGCGATTGACAGCGTAGAATGAAGG
DNA 2: CCTTCATTCTACGCTGTCAATCGCAAGCGAAATGCTTGAGTGACCCTGGCCTGCCAGGGC
B3: NRC3_wobSeed6_DR0_C13G_o1 (dsDNA)
DNA 1: B2 DNA 1 with G6A, C13G
DNA 2: B2 DNA 2 with G48C, C55T
B4: NRC3_wobSeed82_DR3_A9C_o1 (dsDNA)
DNA 1: GCATCGAACGGTCGACGAGGTGAGTATACACCGTTTGCGATTGACAGCGTAGAATGAAGG
DNA 2: CCTTCATTCTACGCTGTCAATCGCAAACGGTGTATACTCACCTCGTCGACCGTTCGATGC
B5: NRC3_wobSeed136_DR5_G21C_o1 (dsDNA)
DNA 1: GCTAGCCTAGGTCATTCAGGCGCCAGTATAGAAAGCGCGATTGACAGCGTAGAATGAAGG
DNA 2: CCTTCATTCTACGCTGTCAATCGCGCTTTCTATACTGGCGCCTGAATGACCTAGGCTAGC
B6: NRC3_wobSeed34_DR1_G10A_o1 (dsDNA)
DNA 1: GCATCGAAAAGTCGAAGGTGAGTATACCCACCCGAAGCGATTGACAGCGTAGAATGAAGG
DNA 2: CCTTCATTCTACGCTGTCAATCGCTTCGGGTGGGTATACTCACCTTCGACTTTTCGATGC
B7: NRC3_wobSeed124_DR5_A6T_o1 (dsDNA)
DNA 1: GCCCTTCTGGGCCATTCAGAGGTCATTGATCATATGGCGATTGACAGCGTAGAATGAAGG
DNA 2: CCTTCATTCTACGCTGTCAATCGCCATATGATCAATGACCTCTGAATGGCCCAGAAGGGC
B8: NRC3_wobSeed124_DR5_C24T_o1 (dsDNA)
DNA 1: B7 DNA 1 with T6A, C24T
DNA 2: B7 DNA 2 with G37A, A55T
B9: NRC3_wobSeed124_DR5_G10T_o1 (dsDNA)
DNA 1: B7 DNA 1 with T6A, G10T
DNA 2: B7 DNA 2 with C51A, A55T
B10: NRC3_wobSeed137_DR5_A16G_o1 (dsDNA)
DNA 1: GCATATGTAGGTTACGTCCGGGTCATTCAGGCTATGGCGATTGACAGCGTAGAATGAAGG
DNA 2: CCTTCATTCTACGCTGTCAATCGCCATAGCCTGAATGACCCGGACGTAACCTACATATGC
B11: NRC3_wobSeed69_DR2_G10A_o1 (dsDNA)
DNA 1: GCAGTCAAAATTCACTAGGTAACGTAAGATTCAGCTGCGATTGACAGCGTAGAATGAAGG
DNA 2: CCTTCATTCTACGCTGTCAATCGCAGCTGAATCTTACGTTACCTAGTGAATTTTGACTGC
B12: NRC3_wobSeed18_DR0_G9C_o1 (dsDNA)
DNA 1: GCGATACACGGTCAAGGCCAGAGTACGCGTATTGATGCGATTGACAGCGTAGAATGAAGG
DNA 2: CCTTCATTCTACGCTGTCAATCGCATCAATACGCGTACTCTGGCCTTGACCGTGTATCGC
B13: NRC3_wobSeed73_DR3_T21A_o1 (dsDNA)
DNA 1: GCCAAACTAGGTCACAGAGGACAAAGTCCGTGCGTAGCGATTGACAGCGTAGAATGAAGG
DNA 2: CCTTCATTCTACGCTGTCAATCGCTACGCACGGACTTTGTCCTCTGTGACCTAGTTTGGC
B14: NRC3_wobSeed134_DR5_o1 (dsDNA)
DNA 1: GCGCTGCTAGGTCAACTGATGGTCAGCTAAAGCTCGGCGATTGACAGCGTAGAATGAAGG
DNA 2: CCTTCATTCTACGCTGTCAATCGCCGAGCTTTAGCTGACCATCAGTTGACCTAGCAGCGC
B15: NRC3_wobSeed134_DR5_C13T_o1 (dsDNA)
DNA 1: B14 DNA 1 with C13T
DNA 2: B14 DNA 2 with G48A
B16: NRC3_wobSeed44_DR1_G10A_o1 (dsDNA)
DNA 1: GCTGAATGAAGTTAAAGATCAGGGAACGTGGCGTCGGCGATTGACAGCGTAGAATGAAGG
DNA 2: CCTTCATTCTACGCTGTCAATCGCCGACGCCACGTTCCCTGATCTTTAACTTCATTCAGC
B17: NRC3_wobSeed44_DR1_G10C_o1 (dsDNA)
DNA 1: B16 DNA 1 with A10C
DNA 2: B16 DNA 2 with T51G
B18: NRC3_wobSeed65_DR2_T8C_o1 (dsDNA)
DNA 1: GCATATGCAGGTTATCGGGTCATTCAGTTTGCGCATGCGATTGACAGCGTAGAATGAAGG
DNA 2: CCTTCATTCTACGCTGTCAATCGCATGCGCAAACTGAATGACCCGATAACCTGCATATGC
B19: NRC3_wobSeed65_DR2_A9G_o1 (dsDNA)
DNA 1: B18 DNA 1 with C8T, A9G
DNA 2: B18 DNA 2 with T52C, G53A
B20: NRC3_wobSeed63_DR2_G19A_o1 (dsDNA)
DNA 1: GCCGAACTAGGTCACCAGAACAGTGAAGAGGTTGGAGCGATTGACAGCGTAGAATGAAGG
DNA 2: CCTTCATTCTACGCTGTCAATCGCTCCAACCTCTTCACTGTTCTGGTGACCTAGTTCGGC
B21: NRC3_wobSeed88_DR3_T15A_o1 (dsDNA)
DNA 1: GCTAGCCTAGGTCAAGCGGGCCAGTATAGTGTCGGCGCGATTGACAGCGTAGAATGAAGG
DNA 2: CCTTCATTCTACGCTGTCAATCGCGCCGACACTATACTGGCCCGCTTGACCTAGGCTAGC
B22: NRC3_wobSeed32_DR1_C4A_o1 (dsDNA)
DNA 1: GCTATTGTAGATCAAAGGTTAAGAAAGCCGAAGCCTGCGATTGACAGCGTAGAATGAAGG
DNA 2: CCTTCATTCTACGCTGTCAATCGCAGGCTTCGGCTTTCTTAACCTTTGATCTACAATAGC
B23: NRC3_wobSeed17_DR0_G16C_o1 (dsDNA)
DNA 1: GCATATGTAGGTTAGCGTCATTCAGAAAGTAGGGAAGCGATTGACAGCGTAGAATGAAGG
DNA 2: CCTTCATTCTACGCTGTCAATCGCTTCCCTACTTTCTGAATGACGCTAACCTACATATGC
B24: NRC3_wobSeed4_DR0_T8G_o1 (dsDNA)
DNA 1: GCCCTACGGGGCCAAGGTCATTGATCAGTCAAAGCAGCGATTGACAGCGTAGAATGAAGG
DNA 2: CCTTCATTCTACGCTGTCAATCGCTGCTTTGACTGATCAATGACCTTGGCCCCGTAGGGC

molecular target: RXRa (Homo sapiens, UniProt P19793); assay: no ligand; PBM; 180 nM; PBS pH 7.4, 2% milk, 0.02% Triton X-100, 1 mM DTT, BSA, 0.4 mg/ml salmon testes DNA; details: tags: His cleaved; chain copies: 2; label: surface-attached array probe
Sequence (P19793 whole entry): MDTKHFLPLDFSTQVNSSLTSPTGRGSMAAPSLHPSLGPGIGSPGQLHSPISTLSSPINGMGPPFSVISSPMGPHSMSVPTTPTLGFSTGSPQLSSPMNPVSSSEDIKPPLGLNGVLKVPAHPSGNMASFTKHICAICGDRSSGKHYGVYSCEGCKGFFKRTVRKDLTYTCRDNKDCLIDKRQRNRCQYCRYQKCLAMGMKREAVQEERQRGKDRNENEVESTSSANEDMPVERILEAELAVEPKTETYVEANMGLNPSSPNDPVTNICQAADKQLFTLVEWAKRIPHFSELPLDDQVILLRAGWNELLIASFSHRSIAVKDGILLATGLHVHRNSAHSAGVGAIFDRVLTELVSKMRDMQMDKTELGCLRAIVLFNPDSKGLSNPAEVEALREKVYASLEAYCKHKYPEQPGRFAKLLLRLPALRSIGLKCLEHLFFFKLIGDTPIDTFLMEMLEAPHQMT

| Binder | binding signal |
| --- | --- |
| B1 | 3.11 PBM z-score against 500 random probes |
| B2 | 3.39 PBM z-score against 500 random probes |
| B3 | 3.19 PBM z-score against 500 random probes |
| B4 | 0.44 PBM z-score against 500 random probes |
| B5 | 3 PBM z-score against 500 random probes |
| B6 | 0.45 PBM z-score against 500 random probes |
| B7 | 3.71 PBM z-score against 500 random probes |
| B8 | 0.48 PBM z-score against 500 random probes |
| B9 | 3.59 PBM z-score against 500 random probes |
| B10 | 3.33 PBM z-score against 500 random probes |
| B11 | 0.46 PBM z-score against 500 random probes |
| B12 | 0.39 PBM z-score against 500 random probes |
| B13 | 3.55 PBM z-score against 500 random probes |
| B14 | 3.07 PBM z-score against 500 random probes |
| B15 | 0.49 PBM z-score against 500 random probes |
| B16 | 0.44 PBM z-score against 500 random probes |
| B17 | 0.4 PBM z-score against 500 random probes |
| B18 | 3.65 PBM z-score against 500 random probes |
| B19 | 3.44 PBM z-score against 500 random probes |
| B20 | 3.24 PBM z-score against 500 random probes |
| B21 | 3.14 PBM z-score against 500 random probes |
| B22 | 3.28 PBM z-score against 500 random probes |
| B23 | 0.46 PBM z-score against 500 random probes |
| B24 | 3.5 PBM z-score against 500 random probes |
